Test results from US20060153775A1.
Starred links: 1 amine or outer side, 2 acyl side, 3 side chain; linkers in the order of their positions; H or OH if unused. Primed or numbered codes have the meaning given here. DPPE′ = dipalmitoylphosphatidylethanolamine; Glutaryl = O=C(CCCC(=O)[*:2])[*:1]

Key:
[1] = target: binding target for TKPPR on HAEC (human aortic endothelial cells); experiment: static bubble binding to HAEC, manual count
[2] = target: binding target for TKPPR on HAEC (human aortic endothelial cells); experiment: static bubble binding to HAEC, 5% composition
[3] = target: KB cells (human epidermoid carcinoma cell line); experiment: static bubble binding to KB cells, 5% composition
[4] = target: binding target for TKPPR on HAEC (human aortic endothelial cells); experiment: static bubble binding to HAEC, 1% D47, no competitor
[5] = target: binding target for TKPPR on HAEC (human aortic endothelial cells); experiment: static bubble binding to HAEC, 5% D47, no competitor
[6] = target: binding target for TKPPR on HAEC (human aortic endothelial cells); experiment: static bubble binding to HAEC, 2% D47, no competitor
[7] = target: binding target for TKPPR on HAEC (human aortic endothelial cells); experiment: static bubble binding to HAEC, 10% D47, no competitor
[8] = target: binding target for TKPPR on HAEC (human aortic endothelial cells); experiment: static bubble binding to HAEC, 5% composition, no competitor
[9] = target: binding target for TKPPR on RAEC (rabbit aortic endothelial cells); experiment: static bubble binding to RAEC, 5% composition, no competitor
[10] = target: binding target for TKPPR on HAEC (human aortic endothelial cells); experiment: static bubble binding to HAEC, 1% composition, no competition
[11] = target: binding target for TKPPR on HAEC (human aortic endothelial cells); experiment: static bubble binding to HAEC, 5% composition, no competition
[12] = target: binding target for TKPPR on HAEC (human aortic endothelial cells); experiment: static bubble binding to HAEC, 5% composition, untreated cells
[13] = target: binding target for TKPPR on HAEC (human aortic endothelial cells); experiment: static bubble binding to HAEC treated 4 h with 1 ng/mL TNFα, 5% composition
[14] = target: binding target for TKPPR on HAEC (human aortic endothelial cells); experiment: static bubble binding to HAEC treated 4 h with 5 ng/mL TNFα, 5% composition
[15] = target: binding target for TKPPR on HAEC (human aortic endothelial cells); experiment: static bubble binding to HAEC treated 4 h with 10 ng/mL TNFα, 5% composition
[16] = target: binding target for TKPPR on HAEC (human aortic endothelial cells); experiment: static bubble binding to HAEC, 5% composition, no competitor (same control as Table 13)
VEGF receptors on HUVECs = experiment: competition with 125I-VEGF for binding to HUVECs
[17] = target: binding target for TKPPR on HAEC (human aortic endothelial cells); experiment: competition of 1% composition bubble binding to HAEC
[18] = target: binding target for TKPPR on HAEC (human aortic endothelial cells); experiment: competition of 5% composition bubble binding to HAEC
[19] = target: binding target for TKPPR on HAEC (human aortic endothelial cells); experiment: competition of 1% D47 bubble binding to HAEC; TKPPR 5 µM
[20] = target: binding target for TKPPR on HAEC (human aortic endothelial cells); experiment: competition of 2% D47 bubble binding to HAEC; TKPPR 25 µM
[21] = target: binding target for TKPPR on HAEC (human aortic endothelial cells); experiment: competition of 1% D47 bubble binding to HAEC; TKPPR 10 µM
[22] = target: binding target for TKPPR on HAEC (human aortic endothelial cells); experiment: competition of 1% D47 bubble binding to HAEC; TKPPR 25 µM
[23] = target: binding target for TKPPR on HAEC (human aortic endothelial cells); experiment: competition of 1% D47 bubble binding to HAEC; TKPPR 50 µM
[24] = target: binding target for TKPPR on HAEC (human aortic endothelial cells); experiment: competition of 1% D56 bubble binding to HAEC; TKPPR 10 µM
[25] = target: binding target for TKPPR on HAEC (human aortic endothelial cells); experiment: competition of 1% D56 bubble binding to HAEC; TKPPR 25 µM
[26] = target: binding target for TKPPR on HAEC (human aortic endothelial cells); experiment: competition of 1% D56 bubble binding to HAEC; TKPPR 50 µM
[27] = target: binding target for TKPPR on HAEC (human aortic endothelial cells); experiment: competition of 1% D47 bubble binding to HAEC; TKPPR 100 µM
[28] = target: binding target for TKPPR on HAEC (human aortic endothelial cells); experiment: competition of 1% D47 bubble binding to HAEC; TKPPR 2.5 µM
[29] = target: binding target for TKPPR on HAEC (human aortic endothelial cells); experiment: competition of 1% D56 bubble binding to HAEC; TKPPR 2.5 µM
[30] = target: binding target for TKPPR on HAEC (human aortic endothelial cells); experiment: competition of TKPPR-bead binding to HAEC; free TKPPR 10 µM
[31] = target: binding target for TKPPR on HAEC (human aortic endothelial cells); experiment: competition of TKPPR-bead binding to HAEC; free TKPPR 25 µM
[32] = target: binding target for TKPPR on HAEC (human aortic endothelial cells); experiment: competition of TKPPR-bead binding to HAEC; free TKPPR 50 µM
[33] = target: binding target for TKPPR on HAEC (human aortic endothelial cells); experiment: competition of TKPPR-bead binding to HAEC; free TKPPR 100 µM
[34] = target: binding target for TKPPR on HAEC (human aortic endothelial cells); experiment: competition of TKPPR-bead binding to HAEC; free TKPPR 200 µM
[35] = target: binding target for TKPPR on HAEC (human aortic endothelial cells); experiment: competition of TKPPR-bead binding to HAEC; free TKPPR 500 µM
[36] = target: binding target for TKPPR on HAEC (human aortic endothelial cells); experiment: competition of 1% D47 bubble binding to HAEC; free TKPPR 10 µM
[37] = target: binding target for TKPPR on HAEC (human aortic endothelial cells); experiment: competition of 1% D47 bubble binding to HAEC; free TKPPR 50 µM
[38] = target: binding target for TKPPR on HAEC (human aortic endothelial cells); experiment: competition of 5% D47 bubble binding to HAEC; free TKPPR 10 µM
[39] = target: binding target for TKPPR on HAEC (human aortic endothelial cells); experiment: competition of 5% D47 bubble binding to HAEC; free TKPPR 50 µM
[40] = target: binding target for TKPPR on HAEC (human aortic endothelial cells); experiment: competition of 1% D47 bubble binding to HAEC; free TKPPR 100 µM
[41] = target: binding target for TKPPR on HAEC (human aortic endothelial cells); experiment: competition of 1% D47 bubble binding to HAEC; free TKPPR 200 µM
[42] = target: binding target for TKPPR on HAEC (human aortic endothelial cells); experiment: competition of 10% D47 bubble binding to HAEC; free TKPPR 10 µM
[43] = target: binding target for TKPPR on HAEC (human aortic endothelial cells); experiment: competition of 10% D47 bubble binding to HAEC; free TKPPR 50 µM
[44] = target: binding target for TKPPR on HAEC (human aortic endothelial cells); experiment: competition of 5% D47 bubble binding to HAEC; free TKPPR 100 µM
[45] = target: binding target for TKPPR on HAEC (human aortic endothelial cells); experiment: competition of 5% D47 bubble binding to HAEC; free TKPPR 200 µM
[46] = target: binding target for TKPPR on HAEC (human aortic endothelial cells); experiment: competition of 10% D47 bubble binding to HAEC; free TKPPR 100 µM
[47] = target: binding target for TKPPR on HAEC (human aortic endothelial cells); experiment: competition of 10% D47 bubble binding to HAEC; free TKPPR 200 µM
[48] = target: binding target for TKPPR on HAEC (human aortic endothelial cells); experiment: competition of 1% composition bubble binding to HAEC; free TKPPR 5 µM
[49] = target: binding target for TKPPR on HAEC (human aortic endothelial cells); experiment: competition of 1% composition bubble binding to HAEC; free TKPPR 10 µM
[50] = target: binding target for TKPPR on HAEC (human aortic endothelial cells); experiment: competition of 1% composition bubble binding to HAEC; free TKPPR 25 µM
[51] = target: binding target for TKPPR on HAEC (human aortic endothelial cells); experiment: competition of 1% composition bubble binding to HAEC; free TKPPR 50 µM
[52] = target: binding target for TKPPR on HAEC (human aortic endothelial cells); experiment: competition of 1% composition bubble binding to HAEC; free TKPPR 100 µM
[53] = target: binding target for TKPPR on HAEC (human aortic endothelial cells); experiment: competition of 5% composition bubble binding to HAEC; free TKPPR 100 µM
[54] = target: binding target for TKPPR on RAEC (rabbit aortic endothelial cells); experiment: competition of 5% composition bubble binding to RAEC; free TKPPR 100 µM

{DPPE′-Glutaryl}-GTKPPR-OH (also: held in phospholipid shell of microbubbles) [gas-filled microbubbles containing DPPE-Glu-GTKPPR (D47), composition I of Example 5]
% more bubbles bound than with the 1% composition [1]: 31%
Bubbles Bound [2]: 7050 bubbles
bubble binding [2]: 1120 bubbles
bubble binding [3]: 56 bubbles
Bubbles Bound [4]: 737 bubbles
Bubbles Bound- 1% [4]: 1640 bubbles
Bubbles Bound- 5% [5]: 2780 bubbles
Bubbles Bound [6]: 953 bubbles
Bubbles Bound % [6]: 100 % of control
Bubbles Bound- 10% [7]: 1860 bubbles
Bubbles Bound [8]: 1250 bubbles
HAEC bubbles bound [8]: 1420 bubbles
RAEC bubbles bound [9]: 751 bubbles
Bubbles Bound [10]: 555 bubbles
Bubbles Bound [11]: 726 bubbles
TKPPR-Bubbles bound [12]: 950 bubbles
TKPPR-Bubbles bound [13]: 1520 bubbles
TKPPR-Bubbles bound [14]: 1360 bubbles
TKPPR-Bubbles bound [15]: 1020 bubbles
Bubbles Bound [16]: 1250 bubbles

TKPPR [TKPPR (L-threonyl-L-lysyl-L-prolyl-L-prolyl-L-arginine)]
IC50 (VEGF receptors on HUVECs): 250 µM
% inhibition of bubble binding [17]: 82.7%
% more bubbles bound with competitor [18]: 19%
Bubbles Bound in presence of competitor [19]: 790 bubbles
Bubbles Bound % in presence of competitor [20]: 16 % of control
Bubbles Bound in presence of competitor [21]: 528 bubbles
Bubbles Bound- D47 Formulation, in presence of competitor [21]: 535 bubbles
Bubbles Bound in presence of competitor [22]: 106 bubbles
Bubbles Bound- D47 Formulation, in presence of competitor [22]: 75 bubbles
Bubbles Bound in presence of competitor [23]: 56 bubbles
Bubbles Bound- D47 Formulation, in presence of competitor [23]: 9 bubbles
Bubbles Bound- D56 Formulation, in presence of competitor [24]: 833 bubbles
Bubbles Bound- D56 Formulation, in presence of competitor [25]: 718 bubbles
Bubbles Bound- D56 Formulation, in presence of competitor [26]: 462 bubbles
Bubbles Bound in presence of competitor [27]: 17 bubbles
Bubbles Bound- D47 Formulation, in presence of competitor [28]: 1240 bubbles
Bubbles Bound- D56 Formulation, in presence of competitor [29]: 888 bubbles
% Inhibition (average, n = 11) [30]: 30.8%
% Inhibition (average, n = 11) [31]: 50.7%
% Inhibition (average, n = 11) [32]: 50.5%
% Inhibition (average, n = 11) [33]: 62%
% Inhibition (average, n = 11) [34]: 72.2%
% Inhibition (average, n = 11) [35]: 70.6%
Bubbles Bound- 1%, in presence of competitor [36]: 10 bubbles
Bubbles Bound- 1%, in presence of competitor [37]: 5 bubbles
Bubbles Bound- 5%, in presence of competitor [38]: 1340 bubbles
Bubbles Bound- 5%, in presence of competitor [39]: 440 bubbles
Bubbles Bound- 1%, in presence of competitor [40]: 4 bubbles
Bubbles Bound- 1%, in presence of competitor [41]: 4 bubbles
Bubbles Bound- 10%, in presence of competitor [42]: 1090 bubbles
Bubbles Bound- 10%, in presence of competitor [43]: 857 bubbles
Bubbles Bound- 5%, in presence of competitor [44]: 12 bubbles
Bubbles Bound- 5%, in presence of competitor [45]: 13 bubbles
Bubbles Bound- 10%, in presence of competitor [46]: 399 bubbles
Bubbles Bound- 10%, in presence of competitor [47]: 66 bubbles
Average % Inhibition [48]: 45.7%
Average % Inhibition [49]: 79.6%
Average % Inhibition [50]: 82%
Average % Inhibition [51]: 92.7%
Average % Inhibition [52]: 93.7%
HAEC bubbles bound in presence of competitor [53]: 58 bubbles
RAEC bubbles bound in presence of competitor [54]: 21 bubbles
